# Experiments:
# human ACKR4-EYFP (human) [1] = molecular target: T1, human ACKR4-EYFP (human) (UniProt Q9NPB9)
# T1 sequence: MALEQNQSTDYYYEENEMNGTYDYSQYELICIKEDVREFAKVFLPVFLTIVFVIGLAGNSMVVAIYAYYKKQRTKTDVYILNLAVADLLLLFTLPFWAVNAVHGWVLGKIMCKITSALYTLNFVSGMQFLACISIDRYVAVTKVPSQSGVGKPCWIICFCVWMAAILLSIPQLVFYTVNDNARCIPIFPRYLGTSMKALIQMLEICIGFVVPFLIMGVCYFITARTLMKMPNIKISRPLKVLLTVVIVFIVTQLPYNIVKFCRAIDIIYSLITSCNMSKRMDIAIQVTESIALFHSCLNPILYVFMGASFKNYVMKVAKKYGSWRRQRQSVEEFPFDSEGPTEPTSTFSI
# human ACKR4-EYFP (human) [2] = molecular target: T1, human ACKR4-EYFP (human); remark: listed apart in the source
"EC50 of β-arrestin1-Nluc recruitment to ACKR4-EYFP (BRET, HeLa cells, graded chemokine) (human ACKR4-EYFP (human) [1])","EC50 of β-arrestin2-Nluc recruitment to ACKR4-EYFP (BRET, HeLa cells, graded chemokine) (human ACKR4-EYFP (human) [1])","EC50 of GRK2-Nluc recruitment to ACKR4-EYFP (BRET, HeLa cells, dose-response) (human ACKR4-EYFP (human) [2])","EC50 of GRK3-Nluc recruitment to ACKR4-EYFP (BRET, HeLa cells, dose-response) (human ACKR4-EYFP (human) [2])",Substance
240 nM,133 nM,129 nM,142 nM,recombinant human CCL21 (from UniProt O00585 24-134) (ligand)
76 nM,32 nM,35 nM,42 nM,recombinant human CCL19 (from UniProt Q99731 22-98) (ligand)
115 nM,130 nM,87 nM,147 nM,recombinant human CCL25 (from UniProt O15444 24-150) (ligand)

# From article PMC7188906
